The Kd is the free concentration of one partner at which half of the binding sites on the other are occupied at equilibrium, for simple one-to-one binding. A lower Kd goes with higher affinity.

Here are results for two molecules from paper PMC11605055.

The series deals with T1, HIM-8 ZF1-2-CTD (Caenorhabditis elegans (N2), UniProt O18068 223-361).
T1 sequence: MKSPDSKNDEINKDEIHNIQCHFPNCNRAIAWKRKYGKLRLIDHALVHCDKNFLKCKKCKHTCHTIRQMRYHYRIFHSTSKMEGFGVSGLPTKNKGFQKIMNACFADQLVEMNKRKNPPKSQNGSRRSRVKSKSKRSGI
Put plainly: ITC. (In general: ITC needs no label: the signal is the heat of the interaction.)

B1: X chromosome PC motif 12 bp (dsDNA)
DNA 1: TTGGTCAGTGCA
DNA 2: TGCACTGACCAA
As for B1, the affinity, expressed as Kd, was 430 ± 10 nM.

B2: X PC motif TG to CA (dsDNA)
DNA 1: TTGGTCAGCACA
DNA 2: TGTGCTGACCAA
In the case of B2, the binding result is “no binding”.
